Data as given in publication PMC3626704 (BMC Biochemistry, 2013).

B1: 25B8 bivalent scFv on phage (scFv, V domains shown)
VH: QVQLVQSGAEVRKPGASVKVSCKASGDTFSSYAISWVRQAPGQGLEWMGGIIPIFGTANYAQAFQGRVTITANESTSTAYMELSSLRSEDTAIYYCARDNPTLLGSDYWGAGTLVTVSS
VL: DIQMTQSPSTLSASIGDRVTITCRASENINRNLAWYQQKPGKAPKLLISRASRLASGAPSRFSGSGSGTDFTLTISSLQPDDFATYYCQQRYNYPYTFGGGTKLEIK
B2: D5 bivalent scFv (biv-scFv) displayed on M13 phage (scFv, V domains shown)
VH: QVQLVQSGAEVRKPGASVKVSCKASGDTFSSYAISWVRQAPGQGLEWMGGIIPIFGTANYAQAFQGRVTITANESTSTAYMELSSLRSEDTAIYYCARDNPTLLGSDYWGAGTLVTVSS
VL: DIQMTQSPSTLSASIGDRVTITCRASEGIYHWLAWYQQKPGKAPKLLIYKASSLASGAPSRFSGSGSGTDFTLTISSLQPDDFATYYCQQYSNYPLTFGGGTKLEIK
B3: 16F6 bivalent scFv on phage (scFv, V domains shown)
VH: QVQLVQSGAEVRKPGASVKVSCKASGDTFSSYAISWVRQAPGQGLEWMGGIIPIFGTANYAQAFQGRVTITANESTSTAYMELSSLRSEDTAIYYCARDNPTLLGSDYWGAGTLVTVSS
VL: DIQMTQSPSTLSASIGDRVTITCRASESISSILAWYQQKPGKAPKLLISNASRLASGAPSRFSGSGSGTDFTLTISSLQPDDFATYYCQQRSNYPFTFGGGTKLEIK
B4: 16E12 bivalent scFv on phage (scFv, V domains shown)
VH: QVQLVQSGAEVRKPGASVKVSCKASGDTFSSYAISWVRQAPGQGLEWMGGIIPIFGTANYAQAFQGRVTITANESTSTAYMELSSLRSEDTAIYYCARDNPTLLGSDYWGAGTLVTVSS
VL: DIQMTQSPSTLSASIGDRVTITCRASEGIRRSLAWYQQKPGKAPKLLISNASHLASGAPSRFSGSGSGTDFTLTISSLQPDDFATYYCQQYYNYPRTFGGGTKLEIK
B5: 16E8 bivalent scFv on phage (scFv, V domains shown)
VH: QVQLVQSGAEVRKPGASVKVSCKASGDTFSSYAISWVRQAPGQGLEWMGGIIPIFGTANYAQAFQGRVTITANESTSTAYMELSSLRSEDTAIYYCARDNPTLLGSDYWGAGTLVTVSS
VL: DIQMTQSPSTLSASIGDRVTITCRASESIYGSLAWYQQKPGKAPKLLISHASHLASGAPSRFSGSGSGTDFTLTISSLQPDDFATYYCQQNDTYPHTFGGGTKLEIK
B6: 25B4 bivalent scFv on phage (scFv, V domains shown)
VH: QVQLVQSGAEVRKPGASVKVSCKASGDTFSSYAISWVRQAPGQGLEWMGGIIPIFGTANYAQAFQGRVTITANESTSTAYMELSSLRSEDTAIYYCARDNPTLLGSDYWGAGTLVTVSS
VL: DIQMTQSPSTLSASIGDRVTITCRASEGIRNGLAWYQQKPGKAPKLLISRASHLASGAPSRFSGSGSGTDFTLTISSLQPDDFATYYCQQYYAYPHTFGGGTKLEIK
B7: 25F12 bivalent scFv on phage (scFv, V domains shown)
VH: QVQLVQSGAEVRKPGASVKVSCKASGDTFSSYAISWVRQAPGQGLEWMGGIIPIFGTANYAQAFQGRVTITANESTSTAYMELSSLRSEDTAIYYCARDNPTLLGSDYWGAGTLVTVSS
VL: DIQMTQSPSTLSASIGDRVTITCRASEGIIGHLAWYQQKPGKAPKLLIYNASRLASGAPSRFSGSGSGTDFTLTISSLQPDDFATYYCQQRDDYPLTFGGGTKLEIK
B8: 25E1 bivalent scFv on phage (scFv, V domains shown)
VH: QVQLVQSGAEVRKPGASVKVSCKASGDTFSSYAISWVRQAPGQGLEWMGGIIPIFGTANYAQAFQGRVTITANESTSTAYMELSSLRSEDTAIYYCARDNPTLLGSDYWGAGTLVTVSS
VL: DIQMTQSPSTLSASIGDRVTITCRASEDIGGSLAWYQQKPGKAPKLLISHAYSLASGAPSRFSGSGSGTDFTLTISSLQPDDFATYYCQQHATYPHTFGGGTKLEIK
B9: 25A5 bivalent scFv on phage (scFv, V domains shown)
VH: QVQLVQSGAEVRKPGASVKVSCKASGDTFSSYAISWVRQAPGQGLEWMGGIIPIFGTANYAQAFQGRVTITANESTSTAYMELSSLRSEDTAIYYCARDNPTLLGSDYWGAGTLVTVSS
VL: DIQMTQSPSTLSASIGDRVTITCRASESIRSHLAWYQQKPGKAPKLLISRASRLASGAPSRFSGSGSGTDFTLTISSLQPDDFATYYCQQSSDYPHTFGGGTKLEIK
B10: 16D10 bivalent scFv on phage (scFv, V domains shown)
VH: QVQLVQSGAEVRKPGASVKVSCKASGDTFSSYAISWVRQAPGQGLEWMGGIIPIFGTANYAQAFQGRVTITANESTSTAYMELSSLRSEDTAIYYCARDNPTLLGSDYWGAGTLVTVSS
VL: DIQMTQSPSTLSASIGDRVTITCRASENIRGSLAWYQQKPGKAPKLLIYRASRLASGAPSRFSGSGSGTDFTLTISSLQPDDFATYYCQQHSDYPHTFGGGTKLEIK
B11: 25C4 bivalent scFv on phage (scFv, V domains shown)
VH: QVQLVQSGAEVRKPGASVKVSCKASGDTFSSYAISWVRQAPGQGLEWMGGIIPIFGTANYAQAFQGRVTITANESTSTAYMELSSLRSEDTAIYYCARDNPTLLGSDYWGAGTLVTVSS
VL: DIQMTQSPSTLSASIGDRVTITCRASESILGSLAWYQQKPGKAPKLLIYRASHLASGAPSRFSGSGSGTDFTLTISSLQPDDFATYYCQQYSNYPLTFGGGTKLEIK
B12: 16B7 bivalent scFv on phage (scFv, V domains shown)
VH: QVQLVQSGAEVRKPGASVKVSCKASGDTFSSYAISWVRQAPGQGLEWMGGIIPIFGTANYAQAFQGRVTITANESTSTAYMELSSLRSEDTAIYYCARDNPTLLGSDYWGAGTLVTVSS
VL: DIQMTQSPSTLSASIGDRVTITCRASENILRLLAWYQQKPGKAPKLLIYYASSLASGAPSRFSGSGSGTDFTLTISSLQPDDFATYYCQQRADYPYTFGGGTKLEIK
B13: 2H10 bivalent scFv on phage (scFv, V domains shown)
VH: QVQLVQSGAEVRKPGASVKVSCKASGDTFSSYAISWVRQAPGQGLEWMGGIIPIFGTANYAQAFQGRVTITANESTSTAYMELSSLRSEDTAIYYCARDNPTLLGSDYWGAGTLVTVSS
VL: DIQMTQSPSTLSASIGDRVTITCRASEDIYRSLAWYQQKPGKAPKLLISRASRLASGAPSRFSGSGSGTDFTLTISSLQPDDFATYYCQQYSNYPLTFGGGTKLEIK
B14: 25C5 bivalent scFv on phage (scFv, V domains shown)
VH: QVQLVQSGAEVRKPGASVKVSCKASGDTFSSYAISWVRQAPGQGLEWMGGIIPIFGTANYAQAFQGRVTITANESTSTAYMELSSLRSEDTAIYYCARDNPTLLGSDYWGAGTLVTVSS
VL: DIQMTQSPSTLSASIGDRVTITCRASEDIHDYLAWYQQKPGKAPKLLISRASRLASGAPSRFSGSGSGTDFTLTISSLQPDDFATYYCQQNDSYPYTFGGGTKLEIK
B15: 16E3 bivalent scFv on phage (scFv, V domains shown)
VH: QVQLVQSGAEVRKPGASVKVSCKASGDTFSSYAISWVRQAPGQGLEWMGGIIPIFGTANYAQAFQGRVTITANESTSTAYMELSSLRSEDTAIYYCARDNPTLLGSDYWGAGTLVTVSS
VL: DIQMTQSPSTLSASIGDRVTITCRASEGIRYGLAWYQQKPGKAPKLLISRASRLASGAPSRFSGSGSGTDFTLTISSLQPDDFATYYCQQHYAYPHTFGGGTKLEIK
B16: 16G6 bivalent scFv on phage (scFv, V domains shown)
VH: QVQLVQSGAEVRKPGASVKVSCKASGDTFSSYAISWVRQAPGQGLEWMGGIIPIFGTANYAQAFQGRVTITANESTSTAYMELSSLRSEDTAIYYCARDNPTLLGSDYWGAGTLVTVSS
VL: DIQMTQSPSTLSASIGDRVTITCRASEGIRRSLAWYQQKPGKAPKLLISNASHLASGAPSRFSGSGSGTDFTLTISSLQPDDFATYYCQQYYNYPRTFGGGTKLEIK
B17: 25A6 bivalent scFv on phage (scFv, V domains shown)
VH: QVQLVQSGAEVRKPGASVKVSCKASGDTFSSYAISWVRQAPGQGLEWMGGIIPIFGTANYAQAFQGRVTITANESTSTAYMELSSLRSEDTAIYYCARDNPTLLGSDYWGAGTLVTVSS
VL: DIQMTQSPSTLSASIGDRVTITCRASEGIYDGLAWYQQKPGKAPKLLISRAYYLASGAPSRFSGSGSGTDFTLTISSLQPDDFATYYCQQRANYPHTFGGGTKLEIK
B18: 16F5 bivalent scFv on phage (scFv, V domains shown)
VH: QVQLVQSGAEVRKPGASVKVSCKASGDTFSSYAISWVRQAPGQGLEWMGGIIPIFGTANYAQAFQGRVTITANESTSTAYMELSSLRSEDTAIYYCARDNPTLLGSDYWGAGTLVTVSS
VL: DIQMTQSPSTLSASIGDRVTITCRASENINDHLAWYQQKPGKAPKLLISRAYRLASGAPSRFSGSGSGTDFTLTISSLQPDDFATYYCQQYADTPFTFGGGTKLEIK

Target: T1, 6-Helix-Fd (HIV-1 gp41 (HXB2-like, printed sequence), stabilised)
T1 construct: also called post-fusion six-helix bundle mimic
T1 chain: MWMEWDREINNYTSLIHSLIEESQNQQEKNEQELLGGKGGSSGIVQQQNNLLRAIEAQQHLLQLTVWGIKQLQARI
Experiment: ELISA; competitive phage ELISA, on-phage bivalent scFv: binding to immobilised 5-Helix inhibited by free 5-Helix or free 6-Helix-Fd (concentrations for the trimer); apparent
Details: one partner purified

In order of rising IC50:
1. B2  11 nM
2. B1  ~100 nM

Target: T2, 5-Helix (HIV-1 group M subtype B, HXB2 (gp41 …, stabilised))
T2 construct: also called designed protein based on HIV-1 gp41
Experiment: as above
Details: one partner purified

In order of falling IC50:
1. B1  3.1 nM
2. B2  0.1 nM

Target: T2, 5-Helix
Experiment: ELISA
Details: one partner purified

In order of rising “F_competitive (signal with 40 nM free 5-Helix / signal without)” value:
1. B4  0.1 fraction
2. B6  0.1 fraction
3. B8  0.1 fraction
4. B9  0.1 fraction
5. B11  0.1 fraction
6. B13  0.1 fraction
7. B17  0.1 fraction
8. B1  0.2 fraction
9. B7  0.2 fraction
10. B18  0.2 fraction
11. B16  0.3 fraction
12. B5  0.4 fraction
13. B14  0.5 fraction
14. B12  0.6 fraction
15. B10  0.7 fraction
16. B15  0.7 fraction
17. B3  0.8 fraction

In order of rising “phage ELISA signal OD450” value:
1. B14  0.7 OD450
2. B13  1.9 OD450
3. B16  2.3 OD450
4. B11  2.5 OD450
5. B7  2.7 OD450
6. B1  2.9 OD450
7. B6  2.9 OD450
8. B3  3 OD450
9. B5  3 OD450
10. B8  3 OD450
11. B10  3 OD450
12. B12  3 OD450
13. B15  3 OD450
14. B18  3 OD450
15. B4  3.1 OD450
16. B17  3.1 OD450
17. B9  3.5 OD450
